Assay [1] deals with FLT3 on the cell surface (human leukemia cell lines and patient cells) (human) (UniProt P36888). Description: flow cytometry, biotinylated antibody 10 ug/ml + Streptavidin-PE, REH cells (ALL). For orientation: Flow cytometry measures light scatter and fluorescence of single cells or particles in a stream.
Assay [2] has the same target. The assay is described as follows: flow cytometry, biotinylated antibody 10 ug/ml + Streptavidin-PE, EOL-1 cells (AML).
The target is the same in assay [3]. The assay is described as follows: flow cytometry, biotinylated antibody 10 ug/ml + Streptavidin-PE, PL-21 cells (AML).
The target is the same in assay [4]. The assay is described as follows: flow cytometry, biotinylated antibody 10 ug/ml + Streptavidin-PE, SEM cells (B-ALL).
For assay [5] the target is unchanged. Description: flow cytometry, biotinylated antibody 10 ug/ml + Streptavidin-PE, SKM-1 cells (AML).
Assay [6] has the same target. Description: flow cytometry, biotinylated antibody 10 ug/ml + Streptavidin-PE, THP-1 cells (AML).
Assay [7] shares this target. The assay is described as follows: flow cytometry, biotinylated antibody 10 ug/ml + Streptavidin-PE, NALM-1 cells (CML).
For assay [8] the target is unchanged. Description: flow cytometry, biotinylated antibody 10 ug/ml + Streptavidin-PE, MOLM-13 cells (AML).
Assay [9] shares this target. Description: flow cytometry, biotinylated antibody 10 ug/ml + Streptavidin-PE, MV-4-11 cells (AML).
The target is the same in assay [10]. Description: flow cytometry, biotinylated antibody 10 ug/ml + Streptavidin-PE, OCI-AML2 cells (AML).
Assay [11] shares this target. Description: flow cytometry, biotinylated antibody 10 ug/ml + Streptavidin-PE, RS4;11 cells (B-ALL).
The target is the same in assay [12]. The assay is described as follows: flow cytometry, biotinylated antibody 10 ug/ml + Streptavidin-PE, MONOMAC-1 cells (AML).
Assay [13] deals with T1, FLT3 on the cell surface (human leukemia cell lines and patient cells) (human, UniProt P36888 27-993).
T1 construct: Endogenous or recombinant FLT3 on cells; also called Fms like tyrosine kinase 3 receptor; Flk2
T1 sequence (P36888 27-993 T227M limits assumed): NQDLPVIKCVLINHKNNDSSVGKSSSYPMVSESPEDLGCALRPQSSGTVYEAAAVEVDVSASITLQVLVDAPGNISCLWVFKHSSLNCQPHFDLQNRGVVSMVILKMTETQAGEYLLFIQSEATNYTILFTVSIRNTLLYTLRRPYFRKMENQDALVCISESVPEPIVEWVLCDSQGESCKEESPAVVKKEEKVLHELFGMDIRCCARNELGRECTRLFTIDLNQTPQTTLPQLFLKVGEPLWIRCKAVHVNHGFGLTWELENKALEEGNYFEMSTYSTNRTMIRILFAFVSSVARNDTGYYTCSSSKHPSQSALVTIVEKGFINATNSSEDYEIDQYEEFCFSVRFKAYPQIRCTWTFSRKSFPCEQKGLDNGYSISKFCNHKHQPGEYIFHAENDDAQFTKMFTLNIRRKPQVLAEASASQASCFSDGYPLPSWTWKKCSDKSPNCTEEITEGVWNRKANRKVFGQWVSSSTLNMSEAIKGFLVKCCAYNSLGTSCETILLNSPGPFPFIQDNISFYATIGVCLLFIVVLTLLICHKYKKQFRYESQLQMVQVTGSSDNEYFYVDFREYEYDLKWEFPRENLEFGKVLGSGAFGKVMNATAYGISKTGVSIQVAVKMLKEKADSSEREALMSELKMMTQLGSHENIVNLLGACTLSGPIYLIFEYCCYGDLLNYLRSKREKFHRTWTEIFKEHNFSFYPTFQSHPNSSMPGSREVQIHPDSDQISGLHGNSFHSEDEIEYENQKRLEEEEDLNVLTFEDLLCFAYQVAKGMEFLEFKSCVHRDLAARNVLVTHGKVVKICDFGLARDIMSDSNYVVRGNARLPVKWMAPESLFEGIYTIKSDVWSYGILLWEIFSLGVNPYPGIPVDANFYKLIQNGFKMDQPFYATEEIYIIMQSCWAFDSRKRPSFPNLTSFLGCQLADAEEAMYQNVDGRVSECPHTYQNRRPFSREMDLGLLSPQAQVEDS
Description: flow cytometry, biotinylated antibody 10 ug/ml + Streptavidin-PE, REH cells (ALL). How it is done:
(§1) CHv62.21 was tested for binding to AML and B-ALL cell lines grown in vitro. (See, Table VII). Briefly, CHv62.21 and an isotype matched control antibody were biotinylated using NHS LC biotin. In vitro, exponentially grown cancer cell lines were used for all experiments. Cells were harvested by and washed by centrifugation. Cells were Fc blocked to reduce non-specific binding. Antibodies were diluted to 10 ug/ml final concentration and co-incubated with cells at 4° C. for 1 hour. At the end of the incubation, cells were washed and incubated with secondary detection Streptavidin-PE antibody at a final 1:200 (2.5 ug/ml) dilution for 1 hour at 4° C. After washing un-bound secondary antibody, cells were analyzed by FACS and geometric mean fluorescence was determined and reported. Fluorescence ratio was calculated as follows: Geo mean cHv62.21/Geo mean isotype control=MFR, a measure of fold expression above isotype control.

In assay [14] the target is T1, FLT3 on the cell surface (human …). Description: flow cytometry, biotinylated antibody 10 ug/ml + Streptavidin-PE, EOL-1 cells (AML). The method, then:
as §1

For assay [15] the target is unchanged. Description: flow cytometry, biotinylated antibody 10 ug/ml + Streptavidin-PE, PL-21 cells (AML). How it is done:
as §1

The target is the same in assay [16]. Description: flow cytometry, biotinylated antibody 10 ug/ml + Streptavidin-PE, SEM cells (B-ALL). The method, then:
as §1

Assay [17] shares this target. Description: flow cytometry, biotinylated antibody 10 ug/ml + Streptavidin-PE, SKM-1 cells (AML). The method, then:
as §1

For assay [18] the target is unchanged. The assay is described as follows: flow cytometry, biotinylated antibody 10 ug/ml + Streptavidin-PE, THP-1 cells (AML). The method, then: as §1
For assay [19] the target is unchanged. The assay is described as follows: flow cytometry, biotinylated antibody 10 ug/ml + Streptavidin-PE, NALM-1 cells (CML). The method, then:
as §1

For assay [20] the target is unchanged. Description: flow cytometry, biotinylated antibody 10 ug/ml + Streptavidin-PE, MOLM-13 cells (AML). The method, then:
as §1

For assay [21] the target is unchanged. The assay is described as follows: flow cytometry, biotinylated antibody 10 ug/ml + Streptavidin-PE, MV-4-11 cells (AML). How it is done: as §1
Assay [22] shares this target. The assay is described as follows: flow cytometry, biotinylated antibody 10 ug/ml + Streptavidin-PE, OCI-AML2 cells (AML). How it is done: as §1
Assay [23] has the same target. The assay is described as follows: flow cytometry, biotinylated antibody 10 ug/ml + Streptavidin-PE, RS4;11 cells (B-ALL). The method, then: as §1
Assay [24] shares this target. Description: flow cytometry, biotinylated antibody 10 ug/ml + Streptavidin-PE, MONOMAC-1 cells (AML). The method, then:
as §1

Chain of FLT3 on the cell surface (human leukemia cell lines and patient cells) (human) (P36888 27-993 T227M limits assumed): as above

In the case of “isotype matched control antibody (Table VI)”, the Geometric Mean fluorescence in assay [1] stood at 235; in assay [2] it was 281; in assay [3], 570; in assay [4], 212; in assay [5], 445; in assay [6] it was 474. Further, the Geometric Mean fluorescence is 262 in [7]; 320 in assay [8]; 366 in assay [9]; 329 in [10]; 213 in assay [11]; 338 in assay [12].

B1: CHv62.21 MAb (antibody, human IgG1, kappa, V domains shown)
VH: EVQLVESGGGLVRPGGSLRLSCAASGFTFSGYSINWVRQAPGKGLEWVSSISSSSNYIYYADSVKGRFTISRDNAKNSLYLQMNSLRAEDTAVYYCAREGFIAGTTFDAFDIWGQGTMVTVSS
VL: DIQMTQSPSSLSASVGDRVTITCRASQGIRNDLGWYQQKPGKAPKRLIYAASSLQSGVPSRFSGSGSGTEFTLTISSLQPEDFATYYCLQHNGFPYTFGQGTKLEIKR
notes: also called cHv62-1b21.1
For the molecule B1, the “MFR (Geo mean cHv62.21/Geo mean isotype control)” value worked out at 69 fold in assay [13]; 50 fold in [14]; 7 fold in assay [15]; 623 fold in assay [16]; 7 fold in assay [17]; 42 fold in assay [18]. In addition, the “MFR (Geo mean cHv62.21/Geo mean isotype control)” value in assay [19] came out at 49 fold; in [20], 44 fold; in [21], 8 fold; in [22] it was 17 fold; in assay [23] it was 86 fold; in assay [24], 34 fold.
